Results taken from patent publication US20210032299A1 (Eli Lilly, published 2021).
Starred links: 1 amine or outer side, 2 acyl side, 3 side chain; linkers in the order of their positions; H or OH if unused. Non-standard residues stand in square brackets, D forms with d. Groups on a side chain read outwards from the residue. No end group written: not given here. *: point of attachment. C20 diacid = O=C(O)CCCCCCCCCCCCCCCCCCC(=O)*; γGlu = O=C(O)[C@H](CCC(=O)[*:2])N[*:1]; 4Pal = N[C@@H](Cc1ccncc1)C(=O)O; αMeL = CC(C)C[C@](C)(N)C(=O)O; AEEA = NCCOCCOCC(=O)O; Aib = CC(C)(N)C(=O)O

T1: human glucose-dependent insulinotropic peptide receptor (human, UniProt P48546 22-466)
T1 sequence (looked up): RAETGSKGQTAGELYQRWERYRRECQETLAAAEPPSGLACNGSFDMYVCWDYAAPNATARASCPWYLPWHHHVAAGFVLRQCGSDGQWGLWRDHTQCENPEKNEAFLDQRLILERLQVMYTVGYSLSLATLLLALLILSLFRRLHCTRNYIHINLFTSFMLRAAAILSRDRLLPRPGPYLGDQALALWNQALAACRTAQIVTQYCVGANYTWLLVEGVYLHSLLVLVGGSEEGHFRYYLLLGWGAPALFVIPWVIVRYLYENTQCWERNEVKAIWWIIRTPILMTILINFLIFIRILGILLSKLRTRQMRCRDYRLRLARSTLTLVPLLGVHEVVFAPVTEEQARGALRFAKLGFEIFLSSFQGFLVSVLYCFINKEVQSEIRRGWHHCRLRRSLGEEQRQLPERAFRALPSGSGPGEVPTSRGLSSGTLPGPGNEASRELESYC


Experiments:
Experiment in all cases: cell-based or functional assay
[1] = target: T1, human glucose-dependent insulinotropic …
human glucagon receptor = human glucagon receptor (human, UniProt P47871 26-477)
human GLP-1 receptor = human GLP-1 receptor (human, UniProt P43220 24-463)

human glucagon receptor, sequence (P47871 26-477): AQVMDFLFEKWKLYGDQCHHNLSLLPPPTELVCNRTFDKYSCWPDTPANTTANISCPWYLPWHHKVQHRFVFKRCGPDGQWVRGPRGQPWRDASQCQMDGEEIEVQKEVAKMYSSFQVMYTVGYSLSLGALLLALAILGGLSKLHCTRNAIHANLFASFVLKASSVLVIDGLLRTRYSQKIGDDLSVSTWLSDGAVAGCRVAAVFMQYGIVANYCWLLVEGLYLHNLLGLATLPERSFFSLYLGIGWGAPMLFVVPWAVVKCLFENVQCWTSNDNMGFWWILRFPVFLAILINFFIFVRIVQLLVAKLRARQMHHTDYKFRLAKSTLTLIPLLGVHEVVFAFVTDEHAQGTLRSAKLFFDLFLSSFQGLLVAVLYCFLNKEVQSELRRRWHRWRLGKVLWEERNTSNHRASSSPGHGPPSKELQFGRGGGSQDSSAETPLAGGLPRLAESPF

Binder	hGIPR cAMP Rel EC50 [1] [nM]	hGcgR cAMP Rel EC50 (human glucagon receptor) [µM]	hGLP1R cAMP Rel EC50 (human GLP-1 receptor) [µM]
Y[Aib]EGTFISDYSI[αMeL]LDEK([AEEA-AEEA-γGlu-C20 diacid])HQ[Aib]DFVE[4Pal]LLATGPSSGAPPPS-NH2 (N-terminus assumed; SMILES CC[C@H](C)[C@H](NC(=O)[C@H](Cc1ccccc1)NC(=O)[C@@H](NC(=O)CNC(=O)[C@H](CCC(=O)O)NC(=O)C(C)(C)NC(=O)[C@@H](N)Cc1ccc(O)cc1)[C@@H](C)O)C(=O)N[C@@H](CO)C(=O)N[C@@H](CC(=O)O)C(=O)N[C@@H](Cc1ccc(O)cc1)C(=O)N[C@@H](CO)C(=O)N[C@H](C(=O)N[C@@](C)(CC(C)C)C(=O)N[C@@H](CC(C)C)C(=O)N[C@@H](CC(=O)O)C(=O)N[C@@H](CCC(=O)O)C(=O)N[C@@H](CCCCNC(=O)COCCOCCNC(=O)COCCOCCNC(=O)CC[C@H](NC(=O)CCCCCCCCCCCCCCCCCCC(=O)O)C(=O)O)C(=O)N[C@@H](Cc1c[nH]cn1)C(=O)N[C@@H](CCC(N)=O)C(=O)NC(C)(C)C(=O)N[C@@H](CC(=O)O)C(=O)N[C@@H](Cc1ccccc1)C(=O)N[C@H](C(=O)N[C@@H](CCC(=O)O)C(=O)N[C@@H](Cc1ccncc1)C(=O)N[C@@H](CC(C)C)C(=O)N[C@@H](CC(C)C)C(=O)N[C@@H](C)C(=O)N[C@H](C(=O)NCC(=O)N1CCC[C@H]1C(=O)N[C@@H](CO)C(=O)N[C@@H](CO)C(=O)NCC(=O)N[C@@H](C)C(=O)N1CCC[C@H]1C(=O)N1CCC[C@H]1C(=O)N1CCC[C@H]1C(=O)N[C@@H](CO)C(N)=O)[C@@H](C)O)C(C)C)[C@@H](C)CC) [Example 83]	0.0432	> 5	> 5
Y[Aib]EGTFISDYSI[αMeL]LDEK([AEEA-AEEA-γGlu-C20 diacid])HQ[Aib]DFVE[4Pal]LLAQGPSSGAPPPS-NH2 (N-terminus assumed; SMILES CC[C@H](C)[C@H](NC(=O)[C@H](Cc1ccccc1)NC(=O)[C@@H](NC(=O)CNC(=O)[C@H](CCC(=O)O)NC(=O)C(C)(C)NC(=O)[C@@H](N)Cc1ccc(O)cc1)[C@@H](C)O)C(=O)N[C@@H](CO)C(=O)N[C@@H](CC(=O)O)C(=O)N[C@@H](Cc1ccc(O)cc1)C(=O)N[C@@H](CO)C(=O)N[C@H](C(=O)N[C@@](C)(CC(C)C)C(=O)N[C@@H](CC(C)C)C(=O)N[C@@H](CC(=O)O)C(=O)N[C@@H](CCC(=O)O)C(=O)N[C@@H](CCCCNC(=O)COCCOCCNC(=O)COCCOCCNC(=O)CC[C@H](NC(=O)CCCCCCCCCCCCCCCCCCC(=O)O)C(=O)O)C(=O)N[C@@H](Cc1c[nH]cn1)C(=O)N[C@@H](CCC(N)=O)C(=O)NC(C)(C)C(=O)N[C@@H](CC(=O)O)C(=O)N[C@@H](Cc1ccccc1)C(=O)N[C@H](C(=O)N[C@@H](CCC(=O)O)C(=O)N[C@@H](Cc1ccncc1)C(=O)N[C@@H](CC(C)C)C(=O)N[C@@H](CC(C)C)C(=O)N[C@@H](C)C(=O)N[C@@H](CCC(N)=O)C(=O)NCC(=O)N1CCC[C@H]1C(=O)N[C@@H](CO)C(=O)N[C@@H](CO)C(=O)NCC(=O)N[C@@H](C)C(=O)N1CCC[C@H]1C(=O)N1CCC[C@H]1C(=O)N1CCC[C@H]1C(=O)N[C@@H](CO)C(N)=O)C(C)C)[C@@H](C)CC) [Example 84]	0.034	> 5	> 5
Y[Aib]EGTFISDYSI[αMeL]LDEK([AEEA-AEEA-γGlu-C20 diacid])HQ[Aib]DFVE[4Pal]LLAAGPSSGAPPPS-NH2 (N-terminus assumed; SMILES CC[C@H](C)[C@H](NC(=O)[C@H](Cc1ccccc1)NC(=O)[C@@H](NC(=O)CNC(=O)[C@H](CCC(=O)O)NC(=O)C(C)(C)NC(=O)[C@@H](N)Cc1ccc(O)cc1)[C@@H](C)O)C(=O)N[C@@H](CO)C(=O)N[C@@H](CC(=O)O)C(=O)N[C@@H](Cc1ccc(O)cc1)C(=O)N[C@@H](CO)C(=O)N[C@H](C(=O)N[C@@](C)(CC(C)C)C(=O)N[C@@H](CC(C)C)C(=O)N[C@@H](CC(=O)O)C(=O)N[C@@H](CCC(=O)O)C(=O)N[C@@H](CCCCNC(=O)COCCOCCNC(=O)COCCOCCNC(=O)CC[C@H](NC(=O)CCCCCCCCCCCCCCCCCCC(=O)O)C(=O)O)C(=O)N[C@@H](Cc1c[nH]cn1)C(=O)N[C@@H](CCC(N)=O)C(=O)NC(C)(C)C(=O)N[C@@H](CC(=O)O)C(=O)N[C@@H](Cc1ccccc1)C(=O)N[C@H](C(=O)N[C@@H](CCC(=O)O)C(=O)N[C@@H](Cc1ccncc1)C(=O)N[C@@H](CC(C)C)C(=O)N[C@@H](CC(C)C)C(=O)N[C@@H](C)C(=O)N[C@@H](C)C(=O)NCC(=O)N1CCC[C@H]1C(=O)N[C@@H](CO)C(=O)N[C@@H](CO)C(=O)NCC(=O)N[C@@H](C)C(=O)N1CCC[C@H]1C(=O)N1CCC[C@H]1C(=O)N1CCC[C@H]1C(=O)N[C@@H](CO)C(N)=O)C(C)C)[C@@H](C)CC) [Example 85]	0.0359	> 5	> 5
Y[Aib]EGTFISDYSI[αMeL]LDEK([AEEA-AEEA-γGlu-C20 diacid])HQ[Aib]DFVE[4Pal]LLAGGPSSGAPPPS-NH2 (N-terminus assumed; SMILES CC[C@H](C)[C@H](NC(=O)[C@H](Cc1ccccc1)NC(=O)[C@@H](NC(=O)CNC(=O)[C@H](CCC(=O)O)NC(=O)C(C)(C)NC(=O)[C@@H](N)Cc1ccc(O)cc1)[C@@H](C)O)C(=O)N[C@@H](CO)C(=O)N[C@@H](CC(=O)O)C(=O)N[C@@H](Cc1ccc(O)cc1)C(=O)N[C@@H](CO)C(=O)N[C@H](C(=O)N[C@@](C)(CC(C)C)C(=O)N[C@@H](CC(C)C)C(=O)N[C@@H](CC(=O)O)C(=O)N[C@@H](CCC(=O)O)C(=O)N[C@@H](CCCCNC(=O)COCCOCCNC(=O)COCCOCCNC(=O)CC[C@H](NC(=O)CCCCCCCCCCCCCCCCCCC(=O)O)C(=O)O)C(=O)N[C@@H](Cc1c[nH]cn1)C(=O)N[C@@H](CCC(N)=O)C(=O)NC(C)(C)C(=O)N[C@@H](CC(=O)O)C(=O)N[C@@H](Cc1ccccc1)C(=O)N[C@H](C(=O)N[C@@H](CCC(=O)O)C(=O)N[C@@H](Cc1ccncc1)C(=O)N[C@@H](CC(C)C)C(=O)N[C@@H](CC(C)C)C(=O)N[C@@H](C)C(=O)NCC(=O)NCC(=O)N1CCC[C@H]1C(=O)N[C@@H](CO)C(=O)N[C@@H](CO)C(=O)NCC(=O)N[C@@H](C)C(=O)N1CCC[C@H]1C(=O)N1CCC[C@H]1C(=O)N1CCC[C@H]1C(=O)N[C@@H](CO)C(N)=O)C(C)C)[C@@H](C)CC) [Example 86]	0.03	> 5	> 5
YXEGTXISDYSIXLDKKHQXDFVEXLLEAGPSSGAPPPS (Aib2; Iva6; αMeL13; K17((2-[2-(2-Amino-ethoxy)-ethoxy]-acetyl)2-(γ-Glu)-CO-(CH2)18-CO2H); Aib20; 4-Pal25; C-terminal amide) [Example 88]	0.0031	1.67	> 5
Y[Aib]EGTLISDYSI[αMeL]LDKK([AEEA-AEEA-γGlu-C20 diacid])HQ[Aib]DFVE[4Pal]LLEAGPSSGAPPPS-NH2 (N-terminus assumed; SMILES CC[C@H](C)[C@H](NC(=O)[C@H](CC(C)C)NC(=O)[C@@H](NC(=O)CNC(=O)[C@H](CCC(=O)O)NC(=O)C(C)(C)NC(=O)[C@@H](N)Cc1ccc(O)cc1)[C@@H](C)O)C(=O)N[C@@H](CO)C(=O)N[C@@H](CC(=O)O)C(=O)N[C@@H](Cc1ccc(O)cc1)C(=O)N[C@@H](CO)C(=O)N[C@H](C(=O)N[C@@](C)(CC(C)C)C(=O)N[C@@H](CC(C)C)C(=O)N[C@@H](CC(=O)O)C(=O)N[C@@H](CCCCN)C(=O)N[C@@H](CCCCNC(=O)COCCOCCNC(=O)COCCOCCNC(=O)CC[C@H](NC(=O)CCCCCCCCCCCCCCCCCCC(=O)O)C(=O)O)C(=O)N[C@@H](Cc1c[nH]cn1)C(=O)N[C@@H](CCC(N)=O)C(=O)NC(C)(C)C(=O)N[C@@H](CC(=O)O)C(=O)N[C@@H](Cc1ccccc1)C(=O)N[C@H](C(=O)N[C@@H](CCC(=O)O)C(=O)N[C@@H](Cc1ccncc1)C(=O)N[C@@H](CC(C)C)C(=O)N[C@@H](CC(C)C)C(=O)N[C@@H](CCC(=O)O)C(=O)N[C@@H](C)C(=O)NCC(=O)N1CCC[C@H]1C(=O)N[C@@H](CO)C(=O)N[C@@H](CO)C(=O)NCC(=O)N[C@@H](C)C(=O)N1CCC[C@H]1C(=O)N1CCC[C@H]1C(=O)N1CCC[C@H]1C(=O)N[C@@H](CO)C(N)=O)C(C)C)[C@@H](C)CC) [Example 89]	0.00687	> 5	> 5
